Assay results: US20220289850 (published 2022)
Substitutions are numbered along the chain they refer to. “And” between values parts separate entries of the source, which are not always exact repeats. Identical values can stand only once.

T1: mouse integrin avb8 (mouse)
T1 chain 1: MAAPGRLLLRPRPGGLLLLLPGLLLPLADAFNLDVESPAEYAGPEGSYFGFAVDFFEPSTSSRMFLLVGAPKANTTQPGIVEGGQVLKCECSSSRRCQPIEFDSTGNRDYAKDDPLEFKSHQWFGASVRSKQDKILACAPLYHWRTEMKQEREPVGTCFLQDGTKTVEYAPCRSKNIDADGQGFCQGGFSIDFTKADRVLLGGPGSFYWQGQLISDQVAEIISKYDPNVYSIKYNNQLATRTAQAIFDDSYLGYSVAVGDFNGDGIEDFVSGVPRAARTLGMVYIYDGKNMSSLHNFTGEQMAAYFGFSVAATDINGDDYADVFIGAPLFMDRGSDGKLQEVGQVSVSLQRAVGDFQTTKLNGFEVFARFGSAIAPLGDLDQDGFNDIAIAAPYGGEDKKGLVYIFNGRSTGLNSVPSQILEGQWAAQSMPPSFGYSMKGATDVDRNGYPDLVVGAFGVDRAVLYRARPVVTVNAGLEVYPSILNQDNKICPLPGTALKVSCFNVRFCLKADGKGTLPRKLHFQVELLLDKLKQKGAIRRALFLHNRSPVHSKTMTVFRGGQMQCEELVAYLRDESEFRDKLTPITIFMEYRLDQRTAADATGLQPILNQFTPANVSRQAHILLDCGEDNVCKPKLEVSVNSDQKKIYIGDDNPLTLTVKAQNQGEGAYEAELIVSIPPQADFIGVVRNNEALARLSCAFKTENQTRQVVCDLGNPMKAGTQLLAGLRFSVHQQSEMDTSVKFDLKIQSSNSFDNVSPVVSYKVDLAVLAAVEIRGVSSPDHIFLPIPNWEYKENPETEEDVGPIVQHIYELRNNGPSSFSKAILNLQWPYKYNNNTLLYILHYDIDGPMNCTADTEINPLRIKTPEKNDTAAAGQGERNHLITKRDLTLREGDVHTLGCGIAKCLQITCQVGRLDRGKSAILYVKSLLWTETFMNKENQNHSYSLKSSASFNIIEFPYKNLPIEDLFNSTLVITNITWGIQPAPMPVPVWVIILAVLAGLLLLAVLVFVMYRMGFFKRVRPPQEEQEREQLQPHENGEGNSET
T1 chain 2: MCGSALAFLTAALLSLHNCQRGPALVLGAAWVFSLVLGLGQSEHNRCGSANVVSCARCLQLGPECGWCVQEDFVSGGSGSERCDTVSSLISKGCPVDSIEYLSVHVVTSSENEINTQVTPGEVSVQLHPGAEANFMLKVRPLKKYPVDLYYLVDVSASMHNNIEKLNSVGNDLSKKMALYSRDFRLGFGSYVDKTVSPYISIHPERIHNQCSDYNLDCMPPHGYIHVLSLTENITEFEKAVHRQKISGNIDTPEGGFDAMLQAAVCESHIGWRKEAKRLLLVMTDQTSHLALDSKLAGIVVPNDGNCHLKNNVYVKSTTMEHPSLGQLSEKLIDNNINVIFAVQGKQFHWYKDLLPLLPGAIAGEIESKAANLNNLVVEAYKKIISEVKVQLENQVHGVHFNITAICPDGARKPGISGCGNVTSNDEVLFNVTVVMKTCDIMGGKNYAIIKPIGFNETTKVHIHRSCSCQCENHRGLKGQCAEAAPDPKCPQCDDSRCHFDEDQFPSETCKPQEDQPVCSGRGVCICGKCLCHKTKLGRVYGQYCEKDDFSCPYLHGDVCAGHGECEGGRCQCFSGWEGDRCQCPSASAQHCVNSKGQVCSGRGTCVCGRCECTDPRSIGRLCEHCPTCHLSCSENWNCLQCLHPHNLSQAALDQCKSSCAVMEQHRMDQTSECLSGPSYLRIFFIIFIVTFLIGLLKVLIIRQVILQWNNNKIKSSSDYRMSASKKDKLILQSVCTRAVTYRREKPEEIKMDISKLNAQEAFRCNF

B1: Mouse hybridoma ADWA-11 Fab (antibody, V domains shown)
VH: EVQLQQSGAELVRPGAFVKLSCKASGFNIKDYYMNWVLQRPEQGLEWIGWIDPDNGNTIYDPKFQGKASITADTSSNTAYLQLSSLTSEDTAVYYCARRLLMDYWGQGTSVTVSS
VL: DIVMTQAAPSVPVTPGESVSISCRSTKSLLHFNGNTYLFWFLQRPGQSPQRLIYYMSNLASGVPDRFSGRGSGTDFTLRISRVEAEDVGVYYCMQSLEYPFTFGTGTKLEIK
B2: ADWA11 VH05/VK01 (VH05-2_VK01) Fab (antibody, V domains shown)
VH: EVQLVESGGGLVQPGGSLRLSCAASGFNIKDYYMNWVRQAPGKGLEWVGWIDPDNGNTIYDPKFQGRFTISADTSKNSAYLQMNSLRAEDTAVYYCARRLLMDYWGQGTLVTVSS
VL: DIQMTQSPSSLSASVGDRVTITCRSTKSLLHFNGNTYLFWYQQKPGKAPKRLIYYMSNLASGVPSRFSGSGSGTDFTLTISSLQPEDFATYYCMQSLEYPFTFGQGTKVEIK
B3: ADWA11 2.4 Fab (antibody, V domains shown)
VH: B2 VH with N55Q, D61E
VL: B2 VL with L30S, N58S, M94Q, Q105G

Molecular target: T1, mouse integrin avb8
Assay: SPR 25C

Row | Kd | Binder
1 | 0.489 nM | B1
2 | < 0.1 nM and 0.137 nM | B2
3 | < 0.2 nM | B3
